Source: the DeepSol protein solubility set

Test: soluble on expression in E. coli; label from the status in PepcDB or PDB records

Sequence | soluble on expression in E. coli
MGHHHHHHHHHHSSGHIEGRHMDINGVLLLDKPQGMSSNDALQKVKRIYNANRAGHTGALDPLATGMLPICLGEATKFSQYLLDSDKRYRVIARLGQRTDTSDADGQIVEERPVTFSAEQLAAALDTFRGDIEQIPSMYSALKYQGKKLYEYARQGIEVPREARPITVYELLFIRHEGNELELEIHCSKGTYIRTIIDDLGEKLGCGAHVIYLRRLAVSKYPVERMVTLEHLRELVEQAEQQDIPAAELLDPLLMPMDSPASDYPVVNLPLTSSVYFKNGNPVRTSGAPLEGLVRVTEGENGKFIGMGEIDDEGRVAPRRLVVEYPA | soluble
MPLFGSIFSPKKTPPRKSASLSNLHSLDRSTRELELGLDYGTPTMNLAGQSLKFENGQWVADSVISGGVDRRETQRLRKRNQQLEEENNLLRLKVDILLDMLSETTAESHLKDKELDELKVTNRRRK | not soluble
MRLDGKTALITGSARGIGRAFAEAYVREGARVAIADINLEAARATAAEIGPAACAIALDVTDQASIDRCVAELLDRWGSIDILVNNAALFDLAPIVEITRESYDRLFAINVSGTLFMMQAVARAMIAGGRGGKIINMASQAGRRGEALVGVYCATKAAVISLTQSAGLNLIRHGINVNAIAPGVVDGEHWDGVDAKFADYENLPRGEKKRQVGAAVPFGRMGRAEDLTGMAIFLATPEADYIVAQTYNVDGGNWMS | soluble
MIDVMQIQEILPHRYPFLLVDKITELKVKEVVLGYKNISISDHVFMGHFPGHPIYPGVLILEGMAQTGGVLAFESMEDKVDPKSKVVYFTGIDGAKFRNPVRPGDRLDYEMSVVKNRGNMWIFKGQAFVDGNLVAEAELKAMIVDK | soluble
MALAQQLRSESDFEQLPDDVAVSANIADIEEKRGFTSHFVFVIEVKTKGGSKYLIYRRYRQFYALQSKLEERFGPESKNSPFTCSLPTLPAKVYMGAKQEIAETRIPALNAYMKNLLSLPVCVLMDPDVRIFFYQSAYDAEQVPQALRRLRPRTRKIKGVSPQGAIMDRMEAPRAEALFDFTGNSKLELSFKAGDVIFLLSKINKDWLEGTSQGATGIFPGSFVKILKDFPEDEDTTNWLRCYFYEDTGKTIKDIAVEEDLSSTPLFKDLLALMRREFQREDIALSYQDAEGDLVRLLSDEDVGLMVKQARGLPSQKRLFPWKLHVTQKDNYSVYNTVP | soluble
ASSKNLSETLFQNHKQAKETSSLTQYMPSSLELLDTRREQSSQAWYRNLRRLQWIWQGVDPVEQEEILARIASSKHSRTHDEWLDTVMGYRSGNWTYEWTRVGMLHQKQAAERQGEEAADQMFAAALYYSIAGYPHLRNDNLALQAQVLANNAYQEAAKLTGFVVKRLEFSYQNKKIAGYLHLRNTDSPKPVVLVSAGLDSLQTDMWRLFRDYLAKRDIAMLTIDMPSLGASSHWPLTEDSSCLHQAVLNQLADLPWVDHFRIGLIGFRFGGNAMARLAFLESDKVKACVSLGAPIHDIFTSPNKLAAMPKMYLDVLASRLGKNVVDVRSLSGQLMAWSLKVQGFMSGRRTKTPILALGLEGDPVSPYSDNQLVALFSQGGQAKKVKSKTISQGYEQSLDLAINWLEDELC | not soluble
MGSLGFLAGGVMPLEQLKQELSEVKGVFGVNLFRPQTDAPKPSDIDELAGLLSSAFRQFGLDEPTVPTPDLSNGWEAKFEAVLAAKPAVFSCTFGIFSAEEFARIKATGIEAWVTVTNPEDALAAQKAGANALVVQGPEAGGHRSTWSIEVEPDERDLKTLLAAVKQAGVYLPLIAAGGLSTSADVAAILEAGASAASCGSAFLLSDEAGTSSLNREILDAAPALGLESVSSRAFSGRYARGVETRFTRSNEGLPPLYPYLNPMITSLRKVAGSAGNWDYAYCLVGVGLESIAKGSAKQILESLTPSALEHHHHHH | not soluble
MSLTRATKGFLSKSLPKASEATPGSQSSDYIPLVSLQLASGAFLLNEAFCTTIQIPMEKLKWTSPFSCLRMSLVTRRQDLKTQSPQDCTSLSSSPPSCDGISLKSEESSDQESNAMLEHMGKLWATVVALAWLEHSSANYIIEWELVAAKASSWVEKQKVPEGRTLSTLKNTARQLFVLLRHWDEKLEFNMLCYNPNYVEGHHHHHH | not soluble
ANSFLEEMKKGHLERECMEETCSYEEAREVFEDSDKTNEFWNKYKDGDQCETSPCQNQGKCKDGLGEYTCTCLEGFEGKNCELFTRKLCSLDNGDCDQFCHEEQNSVVCSCARGYTLADNGKACIPTGPYPCGKQTLE | soluble
GPGSYLMLLGLNLIRLLVCSRIAEFHSEMEKIPFATHGSNLYIRFAVGLERYLMEGSYNKLLTSRKKVPSNEYLPVVEMLEQTVRDEVANCIPESYRQLSIPAAQRILMVDTEAKVREIGAKREWALSADGTHFVFTREDDTLQKEIPFKEMIEQHINFVADLQNIV | not soluble
